For one experiment, the target named is CIP2A (endogenous) (human, UniProt Q8TCG1 1-905). As to the kind of experiment: LacR/LacO assay in U2OS lacO256 cells, endogenous CIP2A at the lacO array.
For a further experiment, the target named is T1, GST-CIP2A (1-560) (human, UniProt Q8TCG1 1-560).
T1 construct: Expressed in Escherichia coli and coupled to glutathione sepharose 4B; not shown: Glutathione S-transferase tag of vector pGEX4T1
Description: GST pull-down with bacterially produced proteins on glutathione resin, immunoblot anti-MBP. As to the method: MBP and GST proteins expressed in Escherichia coli were purified on amylose (New England Biolabs) or glutathione sepharose 4B (GE Healthcare) resins according to the batch method described by the manufacturer and stored in 20 mM Tris-HCl pH 8.0, 150 mM NaCl, 1 mM DTT, 5% glycerol. […] Beads were extensively washed prior to analysis by immunoblotting.

Description for CIP2A (endogenous): 1.8×10⁵ cells were seeded in 6-well plates containing glass coverslips. […] Cells were fixed with 4% PFA 48 h after transfection and stained for immunofluorescence. […] After 0.1 mg/mL nourseothricin selection and cell expansion, 2×10⁵ cells were seeded in 6-well plates. […] 24 h later, cells were seeded in a 96-well plate (˜20,000 cells per well), cultured for 24 h and fixed with 2% PFA and stained for immunofluorescence. Images were acquired on an IN Cell Analyzer 6000 automated microscope (GE Life Sciences) with a 60× objective.

B1: mCherry-LacR-TOPBP1 3A (other)
chain: MSRNDKEPFFVKFLKSSDNSKCFFKALESIKEFQSEEYLQIITEEEALKIKENDRSLYICDPFSGVVFDHLKKLGCRIVGPQVVIFCMHHQRCVPRAEHPVYNMVMSDVTISCTSLEKEKREEVHKYVQMMGGRVYRDLNVSVTHLIAGEVGSKKYLVAANLKKPILLPSWIKTLWEKSQEKKITRYTDINMEDFKCPIFLGCIICVTGLCGLDRKEVQQLTVKHGGQYMGQLKMNECTHLIVQEPKGQKYECAKRWNVHCVTTQWFFDSIEKGFCQDESIYKTEPRPEAKTMPNSSTPTSQINTIDSRTLSDVSNISNINASCVSESICNSLNSKLEPTLENLENLDVSAFQAPEDLLDGCRIYLCGFSGRKLDKLRRLINSGGGVRFNQLNEDVTHVIVGDYDDELKQFWNKSAHRPHVVGAKWLLECFSKGYMLSEEPYIHANYQPVEIPVSHKPESKAALLKKKNSSFSKKDFAPSEKHEQADEDLLSQYENGSSTVVEAKTSEARPFNDSTHAEPLNDSTHISLQEENQSSVSHCVPDVSTITEEGLFSQKSFLVLGFSNENESNIANIIKENAGKIMSLLSRTVADYAVVPLLGCEVEATVGEVVTNTWLVTCIDYQTLFDPKSNPLFTPVPVMTGMTPLEDCVISFSQCAGAEKESLTFLANLLGASVQEYFVRKSNAKKGMFASTHLILKERGGSKYEAAKKWNLPAVTIAWLLETARTGKRADESHFLIENSTKEERSLETEITNGINLNSDTAEHPGTRLQTHRKTVVTPLDMNRFQSKAFRAVVSQHARQVAASPAVGQPLQKEPSLHLDTPSKFLSKDKLFKPSAAAKDALAALETPGRPSQQKRKPSTPLSEVIVKNLQLALANSSRNAVALSASPQLKEAQSEKEEAPKPLHKVVVCVSKKLSKKQSELNGIAASLGADYRWSFDETVTHFIYQGRPNDTNREYKSVKERGVHIVSEHWLLDCAQECKHLPESLYPHTYNPKMSLDISAVQDGRLCNSRLLSAVSSTKDDEPDPLILEENDVDNMATNNKESAPSNGSGKNDSKGVLTQTLEMRENFQKQLQEIMSATSIVKPQGQRTSLSRSGCNSASSTPDSTRSARSGRSRVLEALRQSRQTVPDVNTEPSQNEQIIWDDPTAREERARLASNLQWPSCPTQYSELQVDIQNLEDSPFQKPLHDSEIAKQAVCDPGNIRVTEAPKHPISEELETPIKDSHLIPTPQAPSIAFPLANPPVAPHPREKIITIEETHEELKKQYIFQLSSLNPQERIDYCHLIEKLGGLVIEKQCFDPTCTHIVVGHPLRNEKYLASVAAGKWVLHRSYLEACRTAGHFVQEEDYEWGSSSILDVLTGINVQQRRLALAAMRWRKKIQQRQESGIVEGAFSGWKVILHVDQSREAGFKRLLQSGGAKVLPGHSVPLFKEATHLFSDLNKLKPDDSGVNIAEAAAQNVYCLRTEYIADYLMQESPPHVENYCLPEAISFIQNNKELGTGLSQKRKAPTEKNKIKRPRVH
notes: also called Flag-LacR-TOPBP1^3A; not shown: The mCherry-LacR carrier (Flag-LacR in the legend and methods) and its linker
With B1, in the experiment with CIP2A (endogenous), the binding result was “no binding”.

B2: MBP-TOPBP1756-999-3A (other, not shown: large carriers)
chain: LNSDTAEHPGTRLQTHRKTVVTPLDMNRFQSKAFRAVVSQHARQVAASPAVGQPLQKEPSLHLDTPSKFLSKDKLFKPSAAAKDALAALETPGRPSQQKRKPSTPLSEVIVKNLQLALANSSRNAVALSASPQLKEAQSEKEEAPKPLHKVVVCVSKKLSKKQSELNGIAASLGADYRWSFDETVTHFIYQGRPNDTNREYKSVKERGVHIVSEHWLLDCAQECKHLPESLYPHTYNPKMSLDI
As for B2, the binding result with GST-CIP2A (1-560) is “no binding”.

Values taken from patent US20220153793A1 (SINAI HEALTH SYSTEM, published 2022).
